What was measured:
Assay in all cases: p-nitrophenol release, Lineweaver-Burk
Format in all cases: biochemical, Pyrobaculum ferrireducens
[1] = substrate: CC(=O)Oc1ccc([N+](=O)[O-])cc1; conditions: 50 mM Tris-HCl pH 9.0, 80 °C
Text: (§1) p-nitrophenol release, Lineweaver-Burk on rP186_1588 ([…]_1588)

[2] = substrate: CCCC(=O)Oc1ccc([N+](=O)[O-])cc1; conditions: 50 mM Tris-HCl pH 9.0, 80 °C
Text: as §1

[3] = substrate: CCCCCCCC(=O)Oc1ccc([N+](=O)[O-])cc1; conditions: 50 mM Tris-HCl pH 9.0, 80 °C
Text: as §1

[4] = substrate: CCCCCCCCCC(=O)Oc1ccc([N+](=O)[O-])cc1; conditions: 50 mM Tris-HCl pH 9.0, 80 °C, substrate tested at 0.1-3 mM only
Text: as §1

B1: rP186_1588 (P186_1588) (Pyrobaculum ferrireducens) (protein)
chain: MSEKYVAVEGRRVRYLVGGSGRPVVLLHGWSFNADTWVESGVFNSLAGHFAVYAIDMPYGIRTKSERFQAPRREYAVFLRRVLDALDLADPPLVGPSASGEVVLWYVAKRLPTRAAVVVGPVGLAGELLEELRGAGVPILAVWGEGDEVSPPSRASLLRDVAKVVILRDAGHAAYLDKPGEFVEVVLDFLRGVY
notes: full length 194 aa (21,131 Da calculated, ~23 kDa on SDS-PAGE), His-tagged, synthetic gene in pET-28a(+) NdeI/BamHI, E. coli BL21(DE3), Ni-NTA purified, tag removal not mentioned
B1 was tested, and the Km [1] was 350 ± 10 µM, the kcat [1] was 11.7 ± 0.48 s⁻¹ and the kcat/Km [1] was 33300 ± 1370 M⁻¹ s⁻¹. It also gave a Km [2] of 1270 ± 40 µM, a kcat [2] of 9.12 ± 0.62 s⁻¹ and a kcat/Km [2] of 7180 ± 190 M⁻¹ s⁻¹. For the same protein, the Km [3] was 2640 ± 140 µM, the kcat [3] was 6.36 ± 0.28 s⁻¹ and the kcat/Km [3] was 2410 ± 110 M⁻¹ s⁻¹. It also gave a Km [4] of 4990 ± 210 µM, a kcat [4] of 6.19 ± 0.33 s⁻¹ and a kcat/Km [4] of 1240 ± 70 M⁻¹ s⁻¹.
